Reference: US20250144228A1, “NANOBODY-DRUG ADDUCTS AND USES THEREOF” (priority 2022, published 2025)

Assays:
[1] = tested on: purified MICA*009 antigen in whole cell lysate; assay: Immunoblot with biotinylated anti-MICA nanobodies; type: binding, human; settings: 1 μg/mL, streptavidin-HRP
MICA*008 = MICA*008 (Homo sapiens, UniProt Q29983, C59Y/G229S/K148E/K196E/M152V/Q274R/S238T/T236I/T47A/W233R); type: binding
MICA*009 = type: binding, human
MICA*002 = MICA*002 (Homo sapiens, UniProt Q29983, K148E/T47A/W37G); type: binding
Sequence of MICA*002 (Q29983 24-307 W37G/T47A/K148E): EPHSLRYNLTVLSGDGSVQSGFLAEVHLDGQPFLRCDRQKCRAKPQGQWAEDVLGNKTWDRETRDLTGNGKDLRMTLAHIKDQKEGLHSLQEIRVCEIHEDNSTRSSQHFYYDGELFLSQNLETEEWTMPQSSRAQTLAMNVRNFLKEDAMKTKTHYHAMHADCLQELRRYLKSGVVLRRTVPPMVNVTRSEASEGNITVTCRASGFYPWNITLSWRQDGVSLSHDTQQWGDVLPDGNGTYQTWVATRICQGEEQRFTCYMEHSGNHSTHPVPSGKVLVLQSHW

[2] = molecular target: T1, MICA-transfected B16F10 cells (Homo sapiens, UniProt Q29983); assay: Flow cytometry of transfected B16F10 melanoma cells; type: binding; settings: biotinylated, streptavidin-PE
T1 construct: expressed in transfected cells; host or cells: B16F10 mouse melanoma cells
T1 sequence (Q29983 24-383): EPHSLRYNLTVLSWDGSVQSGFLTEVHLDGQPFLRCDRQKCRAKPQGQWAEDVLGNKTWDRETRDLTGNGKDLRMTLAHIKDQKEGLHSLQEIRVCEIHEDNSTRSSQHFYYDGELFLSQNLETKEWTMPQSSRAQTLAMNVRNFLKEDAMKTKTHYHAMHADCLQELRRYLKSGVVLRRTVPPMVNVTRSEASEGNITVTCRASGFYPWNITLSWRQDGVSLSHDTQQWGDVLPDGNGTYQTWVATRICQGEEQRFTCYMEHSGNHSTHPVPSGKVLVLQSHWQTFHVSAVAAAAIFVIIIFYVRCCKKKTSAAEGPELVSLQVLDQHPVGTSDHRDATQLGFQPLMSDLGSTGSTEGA
Description: (§1) FIGS. 17A-17E: Development of MHC class I polypeptide-related sequence A (MICA)-specific nanobodies. FIG. 17A: Comparison of amino acid sequences of 9 MICA-specific nanobodies that were identified and cloned into a pHen6 expression vector. FIG. 17B: Immunoblots showing specific binding of biotinylated A1 and H3 anti-MICA nanobody clones for purified MICA*009 antigen in whole cell lysate. FIG. 17C: Quantification of ELISA cross-competition assays to determine binding epitopes for anti-MICA nanobodies. A decrease in intensity measured at 450 nm as compared to a single nanobody alone is indicative of binding to the same epitope. Cross-competition is shown for A1 (left) and H3 (right) anti-MICA nanobody clones. FIG. 17D: Quantification of anti-MICA nanobody binding to MICA allelic products as determined by ELISA. A significant increase in intensity measured at 450 nm as compared to uncoated ELISA control is indicative of binding. FIG. 17E: Flow cytometry of B16F10 cells transfected with empty vector, MICA, or MHC class I polypeptide-related sequence B (MICB) using A1 and H3 anti-MICA nanobody clones.
(§2) To further assess whether the isolated anti-MICA VHH nanobodies would bind to MICA on the surface of cells, A1 and H3 nanobody clones were generated against soluble, recombinant MICA*009 and cell binding was assessed by flow cytometry. Binding was assessed using B16F10 melanoma cells transfected to express either MICA or MICB, or an empty vector (EV) as a negative control. Biotinylated A1 and H3 nanobodies were labeled with streptavidin-phycoerythrin (PE) and used for cytofluorimetry of transfected B16F10 cells.

[3] = molecular target: T2, MICB-transfected B16F10 cells (Homo sapiens, UniProt Q29980); assay: as above; type: binding; settings: biotinylated, streptavidin-PE
T2 construct: expressed in transfected cells; host or cells: B16F10 mouse melanoma cells
T2 sequence (Q29980 23-383): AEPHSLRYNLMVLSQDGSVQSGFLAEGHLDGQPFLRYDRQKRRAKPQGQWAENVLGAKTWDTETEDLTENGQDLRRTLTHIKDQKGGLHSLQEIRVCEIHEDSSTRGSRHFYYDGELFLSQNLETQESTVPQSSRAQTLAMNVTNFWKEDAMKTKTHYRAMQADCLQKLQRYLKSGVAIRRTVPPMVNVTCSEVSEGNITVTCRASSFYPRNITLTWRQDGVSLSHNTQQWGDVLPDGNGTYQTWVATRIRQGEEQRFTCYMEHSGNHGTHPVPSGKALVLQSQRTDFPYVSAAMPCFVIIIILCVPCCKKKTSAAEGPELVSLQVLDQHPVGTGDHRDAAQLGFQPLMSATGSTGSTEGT
Description: as §1, §2

[4] = tested on: empty vector (EV)-transfected B16F10 cells; type: binding; settings: biotinylated, streptavidin-PE
[5] = tested on: P. falciparum merozoite surface protein 1 (MSP-1) subunits p83, p38, p42; assay: ELISA of biotinylated VHHs on plate-bound MSP-1 subunits; type: binding, Plasmodium falciparum; settings: streptavidin-HRP and TMB
Description: (§3) FIGS. 13A-13D: VHH nanobodies bind specifically to Plasmodium falciparum: merozoite surface protein 1 (MSP-1). FIG. 13A: Schematic of the PfMSP-1 pro-peptide and the four inclusive subunits: p83, p30, p38, and p42. FIG. 13B: Purified […] B4, anti-p38 B8, anti-p42 A6, and anti-p42 G11 VHHs were biotinylated and these VHHs were incubated with plate bound subunits proteins as indicated. Binding ELISA was detected by using streptavidin-HRP and tetramethylbenzidine (TMB). Data are represented as optical density (OD). Error bars show SEM. FIG. 13C: Western blot of VHHs against the three PfMSP-1 subunits, the full length p190 pro-peptide, and some 3D7 lysates from −38-44 hour 3D7 schizonts. FIG. 13D: Flow cytometry on synchronized ˜38-44 hour 3D7 schizonts using fluorescently (Cy5) labeled VHHs.
(§4) Purified VHH nanobodies were biotinylated and tested for specificity toward isolated MSP-1 subunits. Anti-p83 B4, anti-p38 B8, anti-p42 A6, and anti-p42 G11 VHHs were each incubated with plate-bound p83, p38, p42, and p42, and binding to the plates was detected by an enzyme-linked immunoassay (ELISA) using streptavidin-horseradish peroxidase (HRP) and tetramethylbenzidine (TMB). […] Finally, purified VHHs were tested against live ˜38-44 hour 3D7 schizonts in a flow cytometry assay.

[6] = tested on: PfMSP-1 subunits, full length p190 pro-peptide; type: binding, Plasmodium falciparum
Description: as §3, with “FIG.” for “FIGS. 13A-13D: VHH nanobodies bind specifically to Plasmodium falciparum: merozoite surface protein 1 (MSP-1). FIG.”
as §4

[7] = molecular target: influenza A hemagglutinin

Sequence of MICA*008 (Q29983 24-307 T47A/C59Y/K148E/M152V/K196E/G229S/W233R/T236I/S238T/Q274R): as the sequence (Q29983 24-307 W37G/T47A/K148E) above, with G14W, C36Y, M129V, K173E, G206S, W210R, T213I, S215T, Q251R counted along it

B1: H3: VHH specific for MICA, SEQ ID NO: 24 (protein)
VHH: MAQVQLVETGGGLVQAGGSLRLSCAASGRTFSSYAMGWFRQAPGKEREFVAGISWSGGSTYYGDSVKGRFTISRDNAKNTVYLLMNSLKPEDTAVYYCAADLVRSYGSSWPSLFQFRNPEDVQDGMDYWGKGTLVTVSSGGLPETGGHHHHHH
[1]
  luminescent signal on immunoblots: strong and specific luminescent signal
MICA*008
  binding to MICA variant (ELISA): observed to bind
MICA*009
  binding to MICA variant (ELISA): observed to bind
MICA*002
  binding to MICA variant (ELISA): not observed to bind
[2]
  staining of transfected cells: robust staining
[3]
  staining of transfected cells: neither nanobody clone stained
[4]
  staining of transfected cells: neither nanobody clone stained

B2: anti-p42 G11: VHH specific for P. falciparum MSP-1 p42, SEQ ID NO: 16 (protein)
VHH: QVQLVETGGGLVQAGGSLRLSCVVSGRSLILYGMGWFRQAPGKEREFVAGIVWNGGWTYYADSVKGRFTISRDTAKNTVYLQMNSLKPEDTAVYSCAAGPGDGRRRVAPAEYNYWGQGTQVTVSSLPETGGHHHHHH
[5]
  binding to plate-bound MSP-1 subunits (ELISA): bind specifically to one subunit
[6]
  binding to MSP-1 subunits and pro-peptide p190 (gel electrophoresis / Western blot): bind to one subunit of MSP-1 and to the MSP-1 pro-peptide (p190), but not to any other subunit

B3: A1: VHH specific for MICA, SEQ ID NO: 19 (protein)
VHH: MAQVQLVESGGGLVQPGGSLRLSCAASGFTLDYYDIGWFRQAPGKEREGVSCITSSDGSTYYADSVKGRFTISRDNAKNTVYLQMNSLKPEDTAVYYCAADCTKPQWKSKTEAWGQGTQVTVSSGGLPETGGHHHHHH
[1]
  luminescent signal on immunoblots: strong and specific luminescent signal
MICA*008
  binding to MICA variant (ELISA): observed to bind
MICA*009
  binding to MICA variant (ELISA): observed to bind
MICA*002
  binding to MICA variant (ELISA): not observed to bind
[2]
  staining of transfected cells: robust staining
[3]
  staining of transfected cells: neither nanobody clone stained
[4]
  staining of transfected cells: neither nanobody clone stained

B4: VHHkappa-SD36 conjugated through click chemistry: SD36-azide conjugated to VHHkappa-DBCO through copper-free click reaction (protein)
VHH 1: QVQLVESGGGWVQPGGSLRLSCAASGFTFSDTAMMWVRQAPGKGREWVAAIDTGGGYTYYADSVKGRFTISRDNAKNTLYLQMNSLKPEDTARYYCAKTYSGNYYSNYTVANYGTTGRGTLVTVSSGG
VHH 2: EVQLVESGGGLVQAGGSLKLSCAASGRTYAMGWFRQAPGKEREFVAHINALGTRTYYSDSVKGRFTISRDNAKNTEYLEMNNLKPEDTAVYYCTAQGQWRAAPVAVAAEYEFWGQGTQVTVSSGG
[7]
  affinity for influenza A hemagglutinin, in words: low nanomolar
  affinity relative to genetically conjugated VHHkappa-SD36: higher affinity

B5: B11: VHH specific for MICA, SEQ ID NO: 20 (protein)
VHH: MAQVQLVETGGGLVQPGGSLRLSCAASGFTLDYYAIGWFRQAPGKEREGVSCITSDGNTYYADSVKGRFTISRDNAKNTVYLQMNSLKPEDTAVYYCAADCLSSTWRTNAYLGQGTQVTVSSGGLPETGGHHHHHH
MICA*008
  binding to MICA variant (ELISA): observed to bind
MICA*009
  binding to MICA variant (ELISA): observed to bind
MICA*002
  binding to MICA variant (ELISA): not observed to bind

B6: E9: VHH specific for MICA, SEQ ID NO: 23 (protein)
VHH: MAQVQLVETGGGLVQPGGSLRLSCAASGFTLEHYAIGWFRQAPGKEQEGVSCITSDGDTYYADSVKGRFTISRDNAKNTVYLQMNSLKPEDTAVYYCAADCLSSNWRTSAYWAQGTQVTVSSGGLPETGGHHHHHH
MICA*008
  binding to MICA variant (ELISA): observed to bind
MICA*009
  binding to MICA variant (ELISA): observed to bind
MICA*002
  binding to MICA variant (ELISA): not observed to bind

B7: genetically fused VHHkappa-SD36: VHHkappa N-terminally linked to SD36 by (GGGGS)3 linker, SEQ ID NO: 5 (protein)
chain: QVQLVESGGGWVQPGGSLRLSCAASGFTFSDTAMMWVRQAPGKGREWVAAIDTGGGYTYYADSVKGRFTISRDNAKNTLYLQMNSLKPEDTARYYCAKTYSGNYYSNYTVANYGTTGRGTLVTVSSAAAGGGGSGGGGSGGGGSEVQLVESGGGLVQAGGSLKLSCAASGRTYAMGWFRQAPGKEREFVAHINALGTRTYYSDSVKGRFTISRDNAKNTEYLEMNNLKPEDTAVYYCTAQGQWRAAPVAVAAEYEFWGQGTQVTVSSGGLPETGGHHHHHH
[7]
  affinity for influenza A hemagglutinin, in words: low nanomolar

B8: anti-p42 A6: VHH specific for P. falciparum MSP-1 p42, SEQ ID NO: 7 (protein)
VHH: QVQLVESGGGLVQAGGSLRLSCAASARTFSYYGAAWFRQAPGKEREFVAAVSWNGDDTYYADSVKGRFTISRDNTKNTVSLQMNALKPEDTAVYYCEAAAYGRDWRQSANYVYWGQGTQVTVSSLPETGGHHHHHH
[5]
  binding to plate-bound MSP-1 subunits (ELISA): bind specifically to one subunit
[6]
  binding to MSP-1 subunits and pro-peptide p190 (gel electrophoresis / Western blot): bind to one subunit of MSP-1 and to the MSP-1 pro-peptide (p190), but not to any other subunit
